T1: rHuman Erythropoietin R/Fc Chimera, CF (R&D Systems Cat#963-ER) (human, UniProt P19235 25-250)
T1 construct: Bought reagent; also called EPO R/Fc; Epo R; Fc part of the bought chimera not given
T1 sequence: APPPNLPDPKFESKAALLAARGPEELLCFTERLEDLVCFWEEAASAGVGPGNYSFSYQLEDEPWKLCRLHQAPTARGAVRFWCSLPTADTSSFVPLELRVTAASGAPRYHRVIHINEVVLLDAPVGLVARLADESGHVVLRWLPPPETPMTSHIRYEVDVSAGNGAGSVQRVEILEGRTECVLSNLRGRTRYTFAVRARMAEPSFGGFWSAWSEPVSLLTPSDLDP

B1: Fab VH5-51_IGHD5-18*01>3_IGHJ4*01_G100R & V3-4_IGLJ1*01 (Fab, V domains shown)
VH: EVQLVQSGAEVKKPGESLKISCKGSGYSFTSYWIGWVRQMPGKGLEWMGIIYPGDSDTRYSPSFQGQVTISADKSISTAYLQWSSLKASDTAMYYCARRRYSYGYDYFDYWGQGTLVTVSS
VL: QTVVTQEPSFSVSPGGTVTLTCGLSSGSVSTSYYPSWYQQTPGQAPRTLIYSTNTRSSGVPDRFSGSILGNKAALTITGAQADDESDYYCVLYMGSGISYVFGTGTKVTVL
notes: It was expressed as a Fab: CH1 with tags from Plasmid A and lambda CL from Plasmid E; also called Fab No. 23
B2: Fab VH1-46_IGHD3-10*01_IGHJ4*01 & B3_IGKJ1*01 (Fab, V domains shown)
VH: QVQLVQSGAEVKKPGASVKVSCKASGYTFTSYYMHWVRQAPGQGLEWMGIINPSGGSTSYAQKFQGRVTMTRDTSTSTVYMELSSLRSEDTAVYYCAREYYYGSGSYYNDYFDYWGQGTLVTVSS
VL: not shown
notes: also called IGHV1-46*01

How the values were obtained:
[1] = target: T2, rHuman IGF-1 sR (IGF-1 sR), CF (R&D Systems Cat#391-GR) (human, UniProt P08069 31-932); test: MSD ECL multi-spot plate, antigen immobilized; Fab 40 nM; blank spot 502
T2 construct: Purchased soluble receptor; also called insulin-like growth factor-1 soluble receptor; IGF-R1

[2] = target: T3, rHuman P-Cadherin/Fc Chimera, CF (R&D Systems Cat#861-PC) (human, UniProt P22223 108-654); test: as above
T3 construct: Purchased Fc chimera; not shown: Fc portion of the purchased chimera

[3] = target: T4, rHuman ErbB2/Fc Chimera, CF (R&D Systems Cat#1129-ER) (human, UniProt P04626 23-652); test: as above
T4 construct: Purchased Fc chimera; also called HER2/neu; not shown: Fc portion of the purchased chimera

[4] = target: T5, rHuman HGF R/c-MET/Fc Chimera, CF (R&D Systems Cat#358-MT/CF) (human, UniProt P08581 25-932); test: as above
T5 construct: Purchased Fc chimera; also called HGF R/Fc; not shown: Fc portion of the purchased chimera

[5] = target: T6, rHuman Notch-1/Fc Chimera, CF (R&D Systems Cat#3647-TK) (human, UniProt P46531 19-526); test: as above
T6 construct: Purchased Fc chimera; not shown: Fc portion of the purchased chimera

[6] = target: T1, rHuman Erythropoietin R/Fc Chimera, CF …; test: ECL (MSD multi-spot), antigen spotted on plate; Fab 11 nM; blank spot 212
[7] = target: T7, Recombinant Human DLL4 (R&D Systems Cat#1506-D4/CF) (human, UniProt Q9NR61 27-524); test: as above
T7 construct: Bought reagent; also called delta-like protein 4

[8] = target: T8, rHuman Notch-1/Fc Chimera, CF (R&D Systems Cat#3647-TK) (human, UniProt P46531 19-526); test: as above
T8 construct: Bought reagent; Fc part of the bought chimera not given

[9] = target: T9, rHuman CD44/Fc Chimera, CF (R&D Systems Cat#3660-CD) (human, UniProt P16070 21-220); test: as above
T9 construct: Bought reagent; Fc part of the bought chimera not given

[10] = target: T10, rHuman P-Cadherin/Fc Chimera, CF (R&D Systems Cat#861-PC) (human, UniProt P22223 108-654); test: as above
T10 construct: Bought reagent; also called CDH3; Fc part of the bought chimera not given

[11] = target: T1, rHuman Erythropoietin R/Fc Chimera, CF …; test: ECL (MSD multi-spot), antigen spotted on plate; Fab 176.3 nM; blank spot 346
[12] = target: T7, Recombinant Human DLL4 (R&D Systems …); test: as above
[13] = target: T11, rHuman ErbB2/Fc Chimera, CF (R&D Systems Cat#1129-ER) (human, UniProt P04626 23-652); test: as above
T11 construct: Bought reagent; also called HER2/neu; human epidermal growth factor 2 receptor; Fc part of the bought chimera not given

[14] = target: T12, rHuman EGF R/Fc Chimera, CF (R&D Systems Cat#344-ER) (human, UniProt P00533 25-645); test: as above
T12 construct: Bought reagent; also called epidermal growth factor receptor; Fc part of the bought chimera not given

[15] = target: T13, rHuman HGF R/c-MET/Fc Chimera, CF (R&D Systems Cat#358-MT/CF) (human, UniProt P08581 25-932); test: as above
T13 construct: Bought reagent; also called HGF R/Fc; hepatocyte growth factor receptor; Fc part of the bought chimera not given

[16] = target: T8, rHuman Notch-1/Fc Chimera, CF (R&D …); test: as above
[17] = target: T9, rHuman CD44/Fc Chimera, CF (R&D Systems …); test: as above
[18] = target: T14, rHuman IGF-1 sR (IGF-1 sR), CF (R&D Systems Cat#391-GR) (human, UniProt P08069 31-932); test: as above
T14 construct: Bought soluble receptor; also called insulin-like growth factor-1 soluble receptor; IGF-R1

[19] = target: T10, rHuman P-Cadherin/Fc Chimera, CF (R&D …); test: as above
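Further: blank spot per well as comparator with Hit at signal to blank ratio of 4 or more.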

| Binder | ECL signal [1] | ECL signal [2] | ECL signal [3] | ECL signal [4] | ECL signal [5] | ECL signal [6] | ECL signal [7] | ECL signal [8] | ECL signal [9] | ECL signal [10] | ECL signal [11] | ECL signal [12] | ECL signal [13] | ECL signal [14] | ECL signal [15] | ECL signal [16] | ECL signal [17] | ECL signal [18] | ECL signal [19] |
| --- | --- | --- | --- | --- | --- | --- | --- | --- | --- | --- | --- | --- | --- | --- | --- | --- | --- | --- | --- |
| B1 | 1240 ECL signal | 1020 ECL signal | 1420 ECL signal | 1230 ECL signal | 1010 ECL signal | – | – | – | – | – | – | – | – | – | – | – | – | – | – |
| B2 | – | – | – | – | – | 1820 | 254 | 404 | 296 | 270 | 3520 | 460 | 448 | 428 | 418 | 664 | 376 | 393 | 532 |
